The data set deals with T1, Clp (Xanthomonas campestris pv. campestris 8004) (UniProt Q4UZF6).
T1 sequence: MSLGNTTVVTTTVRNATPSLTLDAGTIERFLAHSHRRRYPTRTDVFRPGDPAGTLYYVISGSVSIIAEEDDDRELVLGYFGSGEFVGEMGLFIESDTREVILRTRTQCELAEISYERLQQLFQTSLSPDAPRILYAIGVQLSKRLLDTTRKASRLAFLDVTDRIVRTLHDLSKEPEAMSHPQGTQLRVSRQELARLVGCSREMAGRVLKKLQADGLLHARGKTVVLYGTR
The data set can be described thus: EMSA. In general terms: In EMSA bound probe runs differently from free probe, usually more slowly.

Consider two sequences from publication PMC6430473.

For “AGCTGAAGGCCGGCCCGGCGGCCAGTGCGAGGGCGGTGGCCAAAGCGAGCGTGCTTGCGGTCCTGAATATGGACATGGTGATCTCCCTAGAGAACCGGGCTCGACACCCGAGCGCGGTAAGGCGGGCATCTTGGTCTGTGCGCGCGTCGCGTGGTG (double strand) [P-36/+120 (text: P-36/+100)]”, the binding entry was “no binding”.
Take “CATGGTGATCTCCCTAGAGAACCGGGCTCGACACCCGAGCGCGGTAAGGCGGGCATCTTGGTCTGTGCGCGCGTCGCGTGGTGTGATCGTCCCCACAGAAAAC (double strand) [P-56/+47]”: the binding result is on record as “binds”.
